Measured values: PMC8079415, “Neutron reflectometry and NMR spectroscopy of full-length Bcl-2 protein reveal its membrane localization and conformation” (Communications Biology, 2021)

Tests used:
Conditions in all cases: both partners purified
[1] = molecular target: T1, full-length human Bcl-2 protein (human, UniProt P10415 1-239); experiment: NMR titration; Nur77 peptide added at 1:6, 1:12 and 1:24 molar ratio to 0.3 mM Bcl-2; 1H-15N TROSY-HSQC, chemical shift perturbations; 5 mM DPC micelles, 20 mM NaPi, 20 mM NaCl, 2 mM TCEP, pH 6.0
T1 construct: three additional N-terminal residues left by the design of the pET-15b expression vector; Bcl-2 (B-cell lymphoma 2), human, full length, 239 aa; 15N (or 13C,15N) uniformly labelled for NMR; Surmise: GSH is what is left after the pET-15b His tag is cut off with thrombin; also called B-cell lymphoma 2; intact human Bcl-2; source: in DPC micelles

[2] = molecular target: T2, Bim (138-174) BH3 peptide from Homo sapiens (Homo sapiens, N-terminal acetyl (Ac-); C-terminal amide (-NH2)); experiment: NMR titration; Bim-BH3 peptide added at 1:1, 1:3 and 1:6 molar ratio to 0.4 mM Bcl-2ΔN(1-82); 1H-15N TROSY-HSQC; 5 mM DPC micelles, 20 mM NaPi, 20 mM NaCl, 2 mM TCEP, pH 6.0; clear samples after centrifugation
T2 construct: Bim, Homo sapiens, residues 138-174; The peptide formed a colloidal suspension in buffer; spectra were recorded on clear samples after centrifugation; also called Bim-BH3 peptide; Bim peptide; source: synthetic peptide, bought: GenScript
T2 sequence (peptide, as listed by the source): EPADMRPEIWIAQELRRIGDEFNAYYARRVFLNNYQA

Bcl-2 ΔTM (aa 1-207) = molecular target: T3, Bcl-2 ΔTM (aa 1-207) (human, UniProt P10415 1-207); experiment: NMR titration; Bax-BH3 peptide added at 1:1, 1:3, 1:6 and 1:12 molar ratio to 0.3 mM Bcl-2 or 0.25 mM Bcl-2 ΔTM; 1H-15N TROSY-HSQC, chemical shift perturbations; 5 mM DPC micelles, 20 mM NaPi, 20 mM NaCl, 2 mM TCEP, pH 6.0, 310 K
T3 construct: three additional N-terminal residues left by the design of the pET-15b expression vector; Bcl-2, human, residues 1-207; a stop codon ends the protein at position 207; 15N labelled for NMR; Made from the full-length construct by site-directed mutagenesis (stop codon TAA); also called Bcl-2 ∆TM; soluble variant with the C-terminal anchor removed; source: E. coli, pET-15b, purified as the …
T3 sequence (P10415 other isoform, or with tags, fused parts or gaps mutant): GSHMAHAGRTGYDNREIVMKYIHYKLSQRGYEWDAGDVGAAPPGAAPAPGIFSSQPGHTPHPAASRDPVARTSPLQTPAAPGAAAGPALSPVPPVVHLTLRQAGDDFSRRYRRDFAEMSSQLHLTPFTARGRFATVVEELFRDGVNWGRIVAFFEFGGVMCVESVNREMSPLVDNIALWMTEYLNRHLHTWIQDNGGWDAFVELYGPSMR

[3] = molecular target: T1, full-length human Bcl-2 protein; experiment: as above

B1: Nur77 peptide (peptide)
peptide: Ac-FSRSLHSLL-NH2
notes: Nur77 (NR4A1), 9-residue peptide; source: synthetic peptide, bought: GenScript
[1]
  binding result: binds

B2: Bcl-2 ΔN(1-82) (domain or fragment, human)
chain: GSHMGPALSPVPPVVHLTLRQAGDDFSRRYRRDFAEMSSQLHLTPFTARGRFATVVEELFRDGVNWGRIVAFFEFGGVMCVESVNREMSPLVDNIALWMTEYLNRHLHTWIQDNGGWDAFVELYGPSMRPLFDFSWLSLKTLLSLALVGACITLGAYLGHK
notes: three additional N-terminal residues left by the design of the pET-15b expression vector; added start methionine: the construct starts its N-terminus with residues MGP (M before G83, P84); Bcl-2, human, the first 82 N-terminal amino acids deleted, C-terminal residues kept (full length is 239 aa); Gene bought from GenScript and sub-cloned into pET-15b; source: E. coli, pET-15b, purified as the …
[2]
  binding result: binds

B3: 36-mer Bax-BH3 peptide from Mus musculus (peptide)
peptide: Ac-QPPQDASTKKLSECLRRIGDELDSNMELQRMIADVD-NH2
notes: Bax, Mus musculus, BH3 region, 36 residues; also called Bax-derived BH3 peptide; source: synthetic peptide, bought: GenScript
Bcl-2 ΔTM (aa 1-207)
  binding result: binds
[3]
  binding result: binds
